Like-named read-outs stand apart in the source and are kept apart here. One block for each binder: values may come before it.
Experiments:
ECFP-RNF4 (wild-type) [1] = target: T1, ECFP-RNF4 (wild-type) (Rattus norvegicus, UniProt O88846 1-194); assay: FRET or BRET
T1 sequence: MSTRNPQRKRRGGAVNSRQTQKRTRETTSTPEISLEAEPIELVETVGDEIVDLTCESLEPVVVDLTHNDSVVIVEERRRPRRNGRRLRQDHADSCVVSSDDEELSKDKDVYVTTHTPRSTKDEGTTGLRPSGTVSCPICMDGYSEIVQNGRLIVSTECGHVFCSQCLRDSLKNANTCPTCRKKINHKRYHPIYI

[2] = target: the molecule itself
MBP-RNF4 (wild-type) = target: T2, MBP-RNF4 (wild-type) (Rattus norvegicus, UniProt O88846 1-194); assay: pull-down
T2 sequence: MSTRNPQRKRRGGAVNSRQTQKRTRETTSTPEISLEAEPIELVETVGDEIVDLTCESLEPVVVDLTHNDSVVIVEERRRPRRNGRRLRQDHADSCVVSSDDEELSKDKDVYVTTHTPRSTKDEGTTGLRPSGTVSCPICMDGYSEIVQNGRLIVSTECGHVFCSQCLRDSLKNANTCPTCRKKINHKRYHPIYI

ECFP-RNF4 (wild-type) [3] = target: T1, ECFP-RNF4 (wild-type); assay: FRET or BRET; remark: listed apart in the source

binding result (ECFP-RNF4 (wild-type) [1]): binds
B1: RNF4 Y193H (natural protein)
chain: MSTRNPQRKRRGGAVNSRQTQKRTRETTSTPEISLEAEPIELVETVGDEIVDLTCESLEPVVVDLTHNDSVVIVEERRRPRRNGRRLRQDHADSCVVSSDDEELSKDKDVYVTTHTPRSTKDEGTTGLRPSGTVSCPICMDGYSEIVQNGRLIVSTECGHVFCSQCLRDSLKNANTCPTCRKKINHKRYHPIHI

binding result (MBP-RNF4 (wild-type)): binds
B3: UbcH5a (N77A C85S)~Ub oxyester (complex)
chain 1: not shown
chain 2: […]

binding result (ECFP-RNF4 (wild-type) [3]): binds
B5: YFP-RING M140A R181A (domain or fragment)
chain: VSCPICADGYSEIVQNGRLIVSTECGHVFCSQCLRDSLKNANTCPTCAKKINHKRYHPIYI

Further lines, the binder ahead of its results:

B2: RNF4 L152A (natural protein)
chain: MSTRNPQRKRRGGAVNSRQTQKRTRETTSTPEISLEAEPIELVETVGDEIVDLTCESLEPVVVDLTHNDSVVIVEERRRPRRNGRRLRQDHADSCVVSSDDEELSKDKDVYVTTHTPRSTKDEGTTGLRPSGTVSCPICMDGYSEIVQNGRAIVSTECGHVFCSQCLRDSLKNANTCPTCRKKINHKRYHPIYI
stoichiometry N [2]: 2

B4: YFP-RING domain of RNF4 (wild-type) (domain or fragment)
chain: VSCPICMDGYSEIVQNGRLIVSTECGHVFCSQCLRDSLKNANTCPTCRKKINHKRYHPIYI
binding result (ECFP-RNF4 (wild-type) [1]): binds

Reference: paper PMC3326525 (Nature structural & molecular biology, 2011)
